From article PMC9896449 (Nature Communications, 2023)

Assays:
[1] = biological target: ShAb01 (shark VNAR - human IgG1 Fc chimera) (nurse shark (Ginglymostoma cirratum)); test: BLI; details: both partners purified
[2] = biological target: ShAb02 (shark VNAR - human IgG1 Fc chimera) (nurse shark (Ginglymostoma cirratum)); test: BLI; details: both partners purified

B1: SARS-CoV-1 RBD (domain or fragment)
chain: not shown
Does B1 bind [1]?
Result: binds

Does B1 bind [2]?
Result: no binding
